The values below come from the supplement of paper PMC11246515.

The data set in a line: total protein half-life in vivo (active degradation + dilution); higher = more stable protein.
[1] abbreviates: E. coli NCM3722 delta-clpP, growth: N-lim chemostat, doubling time 6 h.
Setting [2] is: E. coli NCM3722 delta-hslV, growth: N-lim chemostat, doubling time 6 h.
Setting [3] is: E. coli NCM3722 delta-lon, growth: N-lim chemostat, doubling time 6 h.
The mark [4] stands for this setting: E. coli NCM3722 delta-smpB, growth: N-lim chemostat, doubling time 6 h.
Where [5] appears, read: wild type E. coli NCM3722, growth: C-lim chemostat, doubling time 3 h.
Where [6] appears, read: wild type E. coli NCM3722, growth: C-lim chemostat, doubling time 12 h.
Setting [7] is: wild type E. coli NCM3722, growth: N-lim chemostat, doubling time 6 h.
Where [8] appears, read: wild type E. coli NCM3722, growth: N-lim chemostat, doubling time 12 h.
The mark [9] stands for this setting: wild type E. coli NCM3722, growth: P-lim chemostat, doubling time 6 h.
The mark [10] stands for this setting: wild type E. coli NCM3722, growth: P-lim chemostat, doubling time 12 h.
The mark [11] stands for this setting: wild type E. coli NCM3722, growth: C-lim chemostat, doubling time 6 h.
[12] abbreviates: E. coli NCM3722 delta-clpP delta-lon delta-hslV, growth: N-lim chemostat, doubling time 6 h.

± gives the standard deviation of the averaged measurements.

Take “MSANENNLIWIDLEMTGLDPERDRIIEIATLVTDANLNILAEGPTIAVHQSDEQLALMDDWNVRTHTASGLVERVKASTMGDREAELATLEFLKQWVPAGKSPICGNSIGQDRRFLFKYMPELEAYFHYRYLDVSTLKELARRWKPEILDGFTKQGTHQAMDDIRESVAELAYYREHFIKL [P0A784]”: the “total protein half-life in vivo” value turned out to be 4.86 ± 0.7 h under setting [1]; 4.688 ± 0.041 h under setting [2]; 6.132 ± 0.0019 h under setting [3]; 4.64 ± 0.34 h under setting [4]; 3.41 ± 0.36 h under setting [5]; 13 ± 1.9 h under setting [6]. Also, the “total protein half-life in vivo” value reads like this: under setting [7], 4.65 ± 0.63 h; under setting [8], 8.25 ± 0.81 h; under setting [9], 5.87 ± 0.32 h; under setting [10], 13.6 ± 0.93 h.

For the sequence “MRLSDYFPESSISVIHSAKDWQEAIDFSMVSLLDKNYISENYIQAIKDSTINNGPYYILAPGVAMPHARPECGALKTGMSLTLLEQGVYFPGNDEPIKLLIGLSAADADSHIGAIQALSELLCEEEILEQLLTASSEKQLADIISRG”, the “total protein half-life in vivo” value reads like this: under setting [5], 3.24 ± 0.38 h; under setting [11], 4.03 h; under setting [6], 8.65 h.

As to “MDFSGKNVWVTGAGKGIGYATALAFVEAGAKVTGFDQAFTQEQYPFATEVMDVADAAQVAQVCQRLLAETERLDALVNAAGILRMGATDQLSKEDWQQTFAVNVGGAFNLFQQTMNQFRRQRGGAIVTVASDAAHTPRIGMSAYGASKAALKSLALSVGLELAGSGVRCNVVSPGSTDTDMQRTLWVSDDAEEQRIRGFGEQFKLGIPLGKIARPQEIANTILFLASDLASHITLQDIVVDGGSTLGA”, the “total protein half-life in vivo” value under setting [5] turned out to be 3.26 ± 0.27 h.

For the sequence “MEKVMLSFDKVSAHYGKIQALHEVSLHINQGEIVTLIGANGAGKTTLLGTLCGDPRATSGRIVFDDKDITDWQTAKIMREAVAIVPEGRRVFSRMTVEENLAMGGFFAERDQFQERIKWVYELFPRLHERRIQRAGTMSGGEQQMLAIGRALMSNPRLLLLDEPSLGLAPIIIQQIFDTIEQLREQGMTIFLVEQNANQALKLADRGYVLENGHVVLSDTGDALLANEAVRSAYLGG”, the “total protein half-life in vivo” value runs as follows: under setting [12], 5.87 ± 0.53 h; under setting [1], 6.13 ± 0.64 h; under setting [2], 5.66 ± 0.54 h; under setting [3], 6.44 ± 0.9 h; under setting [4], 5.58 ± 0.61 h; under setting [5], 3.07 ± 0.055 h. Also, the “total protein half-life in vivo” value was found to be 5.86 ± 0.22 h under setting [11]; 12.4 ± 0.52 h under setting [6]; 5.51 ± 0.47 h under setting [7]; 10.1 ± 1.1 h under setting [8]; 5.94 ± 0.59 h under setting [9]; 13.5 ± 0.69 h under setting [10].

Consider “MKYVFIEKHQAEFSIKAMCRVLRVARSGWYTWCQRRTRISTRQQFRQHCDSVVLAAFTRSKQRYGAPRLTDELRAQGYPFNVKTVAASLRRQGLRAKASRKFSPVSYRAHGLPVSENLLEQDFYASGPNQKWAGDITYLRTDEGWLYLAVVIDLWSRAVIGWSMSPRMTAQLACDALQMALWRRKRPRNVIVHTDRGGQYCSADYQAQLKRHNLRGSMSAKGCCYDNACVESFFHSLKVECIHGEHFISREIMRATVFNYIECDYNRWRRHSWCGGLSPEQFENKNLA [P0CF81]”, for which the “total protein half-life in vivo” value under setting [12] is 5.16 ± 0.69 h.

With “MNIKGKALLAGCIALAFSNMALAEDIKVAVVGAMSGPVAQYGDQEFTGAEQAVADINAKGGIKGNKLQIVKYDDACDPKQAVAVANKVVNDGIKYVIGHLCSSSTQPASDIYEDEGILMITPAATAPELTARGYQLILRTTGLDSDQGPTAAKYILEKVKPQRIAIVHDKQQYGEGLARAVQDGLKKGNANVVFFDGITAGEKDFSTLVARLKKENIDFVYYGGYHPEMGQILRQARAAGLKTQFMGPEGVANVSLSNIAGESAEGLLVTKPKNYDQVPANKPIVDAIKAKKQDPSGAFVWTTYAALQSLQAGLNQSDDPAEIAKYLKANSVDTVMGPLTWDEKGDLKGFEFGVFDWHANGTATDAK [P0AD96]”, the “total protein half-life in vivo” value is 6.22 ± 0.16 h under setting [12]; 5.81 ± 0.64 h under setting [1]; 6.127 ± 0.057 h under setting [2]; 6.35 ± 0.39 h under setting [3]; 5.96 ± 0.19 h under setting [4]; 3.27 ± 0.18 h under setting [5]. The “total protein half-life in vivo” value runs as follows: under setting [11], 6.24 ± 0.17 h; under setting [6], 11.46 ± 0.034 h; under setting [7], 6.02 ± 0.32 h; under setting [8], 12.23 ± 0.02 h; under setting [9], 5.67 ± 0.064 h; under setting [10], 13 ± 0.45 h.

On to “MQDLISQVEDLAGIEIDHTTSMVMIFGIIFLTAVVVHIILHWVVLRTFEKRAIASSRLWLQIITQNKLFHRLAFTLQGIIVNIQAVFWLQKGTEAADILTTCAQLWIMMYALLSVFSLLDVILNLAQKFPAASQLPLKGIFQGIKLIGAILVGILMISLLIGQSPAILISGLGAMAAVLMLVFKDPILGLVAGIQLSANDMLKLGDWLEMPKYGADGAVIDIGLTTVKVRNWDNTITTIPTWSLVSDSFKNWSGMSASGGRRIKRSISIDVTSIRFLDEDEMQRLNKAHLLKPYLTSRHQEINEWNRQQGSTESVLNLRRMTNIGTFRAYLNEYLRNHPRIRKDMTLMVRQLAPGDNGLPLEIYAFTNTVVWLEYESIQADIFDHIFAIVEEFGLRLHQSPTGNDIRSLAGAFKQ [P0AAT4]”, for which the “total protein half-life in vivo” value by setting is: under setting [12], 6.49 ± 0.43 h; under setting [1], 6.36 ± 0.28 h; under setting [2], 6.274 ± 0.01 h; under setting [3], 6.69 ± 1.4 h; under setting [4], 6.33 ± 0.022 h; under setting [5], 3.52 ± 0.6 h. Also, the “total protein half-life in vivo” value came to 6.12 ± 0.22 h under setting [11]; 13.9 ± 0.19 h under setting [6]; 6.22 ± 0.46 h under setting [7]; 12 ± 1.6 h under setting [8]; 5.84 ± 0.59 h under setting [9]; 13.7 ± 1.2 h under setting [10].

For “MSKNYHIAVLPGDGIGPEVMTQALKVLDAVRNRFAMRITTSHYDVGGAAIDNHGQPLPPATVEGCEQADAVLFGSVGGPKWEHLPPDQQPERGALLPLRKHFKLFSNLRPAKLYQGLEAFCPLRADIAANGFDILCVRELTGGIYFGQPKGREGSGQYEKAFDTEVYHRFEIERIARIAFESARKRRHKVTSIDKANVLQSSILWREIVNEIATEYPDVELAHMYIDNATMQLIKDPSQFDVLLCSNLFGDILSDECAMITGSMGMLPSASLNEQGFGLYEPAGGSAPDIAGKNIANPIAQILSLALLLRYSLDADDAACAIERAINRALEEGIRTGDLARGAAAVSTDEMGDIIARYVAEGV”, the “total protein half-life in vivo” value turned out to be 3.45 ± 0.8 h under setting [12]; 2.56 ± 0.42 h under setting [1]; 2.43 ± 0.12 h under setting [2]; 2.96 ± 0.089 h under setting [3]; 2.527 ± 0.018 h under setting [4]; 3.23 ± 0.31 h under setting [5]. Also, the “total protein half-life in vivo” value is, setting by setting: under setting [11], 5.057 ± 0.042 h; under setting [6], 8.72 ± 1.7 h; under setting [7], 2.54 ± 0.19 h; under setting [8], 3.52 ± 0.11 h; under setting [9], 5.34 ± 0.7 h; under setting [10], 9.08 ± 0.2 h.
